From the supplement of paper PMC12042874
± gives the uncertainty stated by the source.

Assay: amyloid nucleation score (Sup35N fusion, yeast selection) (log enrichment); library NNK1; higher = more nucleation; inactive = no reads after selection
Method in brief: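 The nucleation score is the DiMSum log enrichment of output over input reads, centred on the mode score of non-aggregating sequences. Only sequences with 100 or more input reads were scored, using Illumina sequencing of input and output plasmid inserts. Psi-negative yeast expressing Sup35N fused to peptides of 20 random codons were induced 24 hours with 100 μM copper sulfate and grown 7 days at 30°C on medium lacking adenine and uracil.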

Substance	amyloid nucleation score
PWCSKQEGTRMWGMYGAPGG	0.162 ± 0.62
PWGTCQQYRYTFWPVSAC	-0.412 ± 0.92
PWTYQHGQLASWVLGES	-0.242 ± 0.33
PYRFSYKVVESSICDNLRRR	-0.094 ± 0.35
PYRPLSGRHRVLTQYGKLVG	0.112 ± 0.81
PYSQFANLSIYVMDMMRGIR	5.562 ± 0.048
PYWTVYGELL	0.116 ± 0.97
QAELYPDQNRGCVGLVVPAD	-0.544 ± 0.54
QAFSNESVTRDLLCG	-0.957 ± 0.64
QATYCGLIIPSGLIYPDYTV	-0.442 ± 0.54
QAVGSI	0.031 ± 0.33
QCSCSKWLAIRDWDGSSKMK	0.082 ± 1.6
QDITPYWIVIGYD	-0.367 ± 0.29
QDLPAISLFTDVQSKPRTFP	0.631 ± 0.95
QDRNVSWLYIGSVTGRRVAG	0.488 ± 0.66
QEYRDMILKPFHRWFTMFK	0.941 ± 0.44
QFAHKVYPMSSCLVNVA	-0.678 ± 0.57
QFIRILDQSKILYLCCFLDT	5.64 ± 0.061
QFKKVGPPLVKNLAQVRMRM	-0.033 ± 0.47
QFMMS	0.052 ± 0.29
QFSAIIMSLSLLWSFMCAWE	-0.217 ± 0.55
QGCIVQGAASEIEANLAQLS	1.08 ± 0.59
QGKLFFLVNLYSKPQNSHYG	4.13 ± 0.069
QGSSSGITQFGMPTYLGIIC	0.61 ± 0.47
QGVGSDVTSIYTV	-0.884 ± 2.4
QGWKGSC	-0.385 ± 1.4

Substance	amyloid nucleation score
QHEDISPPKLPIVNSAIPFV	0.335 ± 0.54
QHIPGDCFYHCCQFHCAQKE	0.818 ± 0.77
QHRVCLHCYKM	-1.63 ± 2.7
QIFLWFGISNKDFLHFVSWS	0.158 ± 0.57
QIHFFAFRFIGMVYFPRIGD	0.318 ± 0.79
QIIHGCSAGLQLT	0.809 ± 0.47
QISVKTMLLSLTFRMFIYWN	-0.168 ± 0.38
QKCIVLVMLLGWVFGMPVIG	0.129 ± 0.65
QKTASILLPVRYFWCEKSWM	-0.667 ± 1.5
QLDINN	0.197 ± 0.52
QLGWYLFGM	0.729 ± 0.4
QLIHMMFYIRFMWDLGHRSL	0.814 ± 0.36
QLSYLTFFCFVP	7.183 ± 0.052
QLTLSNWLKTSAKA	2.5 ± 0.32
QLTSVSIFWYPF	-1.46 ± 2.4
QMRSVYVQDTINMALIIHEL	0.617 ± 0.27
QMTKNYEWDSTRIACVGLHR	2.68 ± 0.11
QMVGESDECRCSLYSGQWKG	-0.186 ± 0.42
QNDVSGKLGNKLSSVCSLRR	0.405 ± 0.95
QNFSRTGGIGIHKIFVGMGE	-1.13 ± 1.4
QNPNVDERNSTS	0.69 ± 0.52
QPNSWELWPCSDLRIRLVEE	0.104 ± 0.34
QQLYINC	0.199 ± 0.47
QRIGHLVLDSVGRTSCVMGA	0.386 ± 0.41
QRLFRYNPTKSRGLCNNTWA	0.59 ± 0.22
QRMLDTLH	-0.134 ± 1.7

Substance	amyloid nucleation score
QRQNVYVGGYIANMVHGSGC	1.27 ± 0.58
QRRALHTL	-0.069 ± 0.46
QRSRHSIFQGILRGSNSSWD	1.12 ± 0.69
QSDKCCLMYGECVHVVC	2.83 ± 0.069
QSNSTYYGGSSRSGEKFPLG	3.83 ± 0.083
QSRSL	0.703 ± 0.66
QTLCCETRWSGENRSDAFRV	-0.596 ± 0.79
QTSSFFCSV	-2.12 ± 2.4
QVLDTGVVTDWSVIPFGRSY	0.483 ± 0.65
QVNDIGP	-0.341 ± 0.22
QVTTSPQ	-0.387 ± 0.56
QVVRIYQVQGLWIMVHR	1.96 ± 0.28
QVWITWVGRKLPHRGKTVGN	-0.379 ± 0.53
QWCDKVFL	-0.687 ± 0.4
QWCNIVGSMIVDITQELML	1.75 ± 0.25
QWLAVVVIKVGLTWQYRFGG	0.198 ± 0.91
QYFKPGVASPSGDPVFKKKV	-0.404 ± 0.43
QYLFIYFLALS	-1.27 ± 0.53
QYVPNTLDNSPDAVGMSNIY	-0.29 ± 1.7
RADWYASAGKRCGHLQG	-0.148 ± 0.3
RALGIDIRIFMVDDNSAFSI	0.347 ± 1.1
RALSVRSRQLG	0.135 ± 0.97
RALVDRLSTS	0.472 ± 0.82
RAPLLMSVTLLRHQFCTRME	1.8 ± 0.21
RARTKAWWMDWSGYRRGGHL	0.118 ± 0.58
RAVGDM	-0.241 ± 0.52

Substance	amyloid nucleation score
RCEVESIRNGLAKAGSVTMR	0.515 ± 0.38
RCGGM	-0.381 ± 0.64
RCIPLNNNFYASKQLLMSME	0.259 ± 0.62
RCLMPYNYE	0.952 ± 0.49
RCNSDESYL	0.078 ± 0.42
RCRYVRLETSLC	-0.083 ± 0.47
RCRYYCNR	-0.152 ± 0.48
RCSTPRCSPL	-0.237 ± 0.62
RCWGRAYMYRPCCISV	-1.06 ± 0.8
RCYIDYSVEFRLHMIKMKTR	-0.227 ± 0.65
RDAIYYKICLAQPRSF	-0.465 ± 0.38
RDCPGL	-0.95 ± 2.7
RDHMAYYMSVVGSSKNPLRR	inactive
RDSHSLMVVGFRYELSQGLK	0.496 ± 1.1
RDSNVGIFHNSR	-1.35 ± 0.87
RDYFTN	0.789 ± 0.9
REDWSTLEPYPHYDTAIGRS	1.24 ± 0.8
REEYYGIPSEINGHTTLVYS	1.03 ± 0.72
REFGLLAWVELLFWATFR	-0.676 ± 0.94
REGATIPWFRCNRLE	-0.167 ± 0.33
REIIGRLLSVRTSLAEYNSG	-0.514 ± 0.91
RFCGVMESERTVIRKCREVG	0.095 ± 0.42
RFCISNARRRFLRPFGSYL	0.072 ± 1.1
RFCRSIAFA	0.237 ± 0.32
RFEGERRVVG	-0.035 ± 0.3
RFEMNCWSC	-0.802 ± 0.39

Substance	amyloid nucleation score
RFFCDCFFGSRGE	1.88 ± 0.36
RFFCSD	0.641 ± 0.97
RFFRISWIFMSDSRPTRSDF	0.793 ± 0.84
RFGYFFHLVGAGEGHGKGAC	0.686 ± 0.59
RFNSYEVVIRVWRDSMISEG	1.09 ± 0.78
RFNWSSDLCSFKTPLSKHVG	0.258 ± 0.41
RFRYDTVMMNMFLNRVSFGG	1.38 ± 0.4
RFSWPWTDYNMKNYA	-0.119 ± 0.21
RFTGQWWYVFSLWAILSRIK	0.357 ± 0.55
RFVLVMYMESLKMHCSLTYT	-0.381 ± 0.27
RFVNKGGT	-0.325 ± 0.69
RFYMWYLVLEVLEIGKLADP	-1.04 ± 2.7
RGDAIMAWGSVVRYIHYILY	1.51 ± 0.5
RGDLSYYCRSNN	-0.5 ± 1.4
RGFADLCAFEDMCIRFDESL	0.878 ± 0.64
RGFCTGNDVF	inactive
RGGKGPRFVYNRFISRAAGR	-0.869 ± 0.74
RGGRWLMATWMMPGNGCLAA	0.708 ± 0.52
RGICWWLNIHWGKAMDMLGP	0.428 ± 0.97
RGLYFNALSR	-0.167 ± 0.43
RGNRHTSGNVTL	0.045 ± 0.35
RGNSFIRRY	0.285 ± 0.47
RGPLDP	0.361 ± 0.45
RGRVSNY	-0.455 ± 1.4
RGSIRIKDMTCGLEIGIALR	-0.001 ± 0.44
RGSQGLVNLYIAFPMECLGI	3.73 ± 0.087

Substance	amyloid nucleation score
RHAKRLWRV	-0.574 ± 0.78
RHISAAEPQSVESMIAKGN	-0.054 ± 0.98
RHIYVSVNERLYVEFNYIAG	2.19 ± 0.34
RHMHSQFPAGLLIVGLRIVW	0.915 ± 0.75
RHVGVAGFRFLPGPCDWPAR	3.94 ± 0.14
RHVNEQDILREQFLLMDFRK	0.753 ± 0.72
RHVVRR	0.441 ± 0.36
RICPKNCMSISVI	0.305 ± 0.29
RIDDSIFLDFWM	-0.214 ± 0.4
RIENNFLSTSFVFSCLIGNM	5.88 ± 0.07
RIGETASYTL	-0.09 ± 0.47
RIGTGSHLWII	-0.083 ± 0.6
RIISGRLSSMFVNSIKVIMD	0.889 ± 0.21
RIKNGLPKGFFGKSLSPMRW	-0.161 ± 0.8
RIRIVNITGAESPMLCLNHE	4.42 ± 0.12
RIRWSVVVNV	-0.002 ± 0.29
RISNRCSCSCNFDQGGVRQP	0.394 ± 1.1
RIVILLKVIYFQFYRLQYIT	0.03 ± 0.32
RIVKSGGFNR	-0.089 ± 0.39
RIVLILRSNHCQNSY	0.641 ± 0.3
RIWDCRYCKG	-0.184 ± 0.29
RIWPRSMYRPSSGCVET	-0.281 ± 0.52
RKNFLGIGQKLGSSSDWGG	-0.899 ± 1
RKNSNDEASS	-0.339 ± 0.31
RKRVCSGLRSFWSFFRCLRV	-0.711 ± 2.1
RKVGVGKYLSHFECANRIWL	0.3 ± 0.33

Substance	amyloid nucleation score
RKVITDKTLL	-0.099 ± 0.45
RLCKKSIHRDVASRFPNEDV	1.02 ± 0.36
RLFFSE	0.117 ± 0.32
RLFGLPKYCYVILFPVDVCH	0.132 ± 0.21
RLFVVEELESWGCFNWASIM	-1.7 ± 2.4
RLKLTGFMGLSILERVTLCS	-0.396 ± 0.52
RLLFITYSMVSKYNKCLIRG	0.048 ± 0.74
RLLRYMRDIR	-0.814 ± 0.57
RLMRHNMPTVVEHAGSSRSN	-0.132 ± 0.31
RLMTDHINSTVTSMGKGRIT	-0.026 ± 0.22
RLNDNRYSYVVVS	-0.127 ± 0.64
RLPLMNWFTAMA	0.037 ± 0.42
RLRITVTISATAGMMRRLHR	2.39 ± 0.14
RLRLWFVASRMVDKGSGLNV	0.67 ± 0.49
RLRSLDHWSWDAVMLMRAQL	0.432 ± 0.34
RLSGKFFICVGLKCVIWLRG	-1.09 ± 0.54
RLSRLLTLISVACSTFLCVV	-1.84 ± 2.1
RLWGYCMHSLVFDTNIWHPL	0.461 ± 0.32
RLWYGRSPWELVTIRSQARG	0.14 ± 0.31
RLYYLGMSGYLRHNPASCVL	-1.56 ± 2.7
